Common to all, as to experiment: ELISA; solid-phase binding assay: native (triple-helical) collagens coated at 200 μg/ml in PBS on Immulon 2HB plates overnight at 4 °C; DDR-Fc at 20 μg/ml (∼220 nM) or in a series of 0-60 μg/ml (0-667 nM) in PBS, 3 h at room temperature; anti-Fc detection, A450; apparent Kd from a one-site fit
In general terms: An ELISA detects its analyte on a solid surface through an enzyme-linked reagent.

Assay [1] deals with SCl-DDR4 (bacterial collagen with four triplets of the human collagen III DDR-binding sequence) (Streptococcus pyogenes | human).
In assay [2] the target is SCl-DDR6 (bacterial collagen with six triplets of the human collagen III DDR-binding sequence) (Streptococcus pyogenes | human).
Assay [3] has as its target T1, Collagen type III, pepsin-extracted from bovine skin (bovine, UniProt P04258 1-1049, 4-hydroxyproline in Yaa positions (positions not listed)).
T1 construct: bovine collagen alpha1(III) chain, pepsin-extracted from skin; Homotrimer of alpha1(III) chains; native triple helix unless denatured (90 °C, 30 min); also called Bovine Collage III; collagen III; source: pepsin-extracted from bovine skin (provided by Dr. John Ramshaw)
T1 sequence (looked up): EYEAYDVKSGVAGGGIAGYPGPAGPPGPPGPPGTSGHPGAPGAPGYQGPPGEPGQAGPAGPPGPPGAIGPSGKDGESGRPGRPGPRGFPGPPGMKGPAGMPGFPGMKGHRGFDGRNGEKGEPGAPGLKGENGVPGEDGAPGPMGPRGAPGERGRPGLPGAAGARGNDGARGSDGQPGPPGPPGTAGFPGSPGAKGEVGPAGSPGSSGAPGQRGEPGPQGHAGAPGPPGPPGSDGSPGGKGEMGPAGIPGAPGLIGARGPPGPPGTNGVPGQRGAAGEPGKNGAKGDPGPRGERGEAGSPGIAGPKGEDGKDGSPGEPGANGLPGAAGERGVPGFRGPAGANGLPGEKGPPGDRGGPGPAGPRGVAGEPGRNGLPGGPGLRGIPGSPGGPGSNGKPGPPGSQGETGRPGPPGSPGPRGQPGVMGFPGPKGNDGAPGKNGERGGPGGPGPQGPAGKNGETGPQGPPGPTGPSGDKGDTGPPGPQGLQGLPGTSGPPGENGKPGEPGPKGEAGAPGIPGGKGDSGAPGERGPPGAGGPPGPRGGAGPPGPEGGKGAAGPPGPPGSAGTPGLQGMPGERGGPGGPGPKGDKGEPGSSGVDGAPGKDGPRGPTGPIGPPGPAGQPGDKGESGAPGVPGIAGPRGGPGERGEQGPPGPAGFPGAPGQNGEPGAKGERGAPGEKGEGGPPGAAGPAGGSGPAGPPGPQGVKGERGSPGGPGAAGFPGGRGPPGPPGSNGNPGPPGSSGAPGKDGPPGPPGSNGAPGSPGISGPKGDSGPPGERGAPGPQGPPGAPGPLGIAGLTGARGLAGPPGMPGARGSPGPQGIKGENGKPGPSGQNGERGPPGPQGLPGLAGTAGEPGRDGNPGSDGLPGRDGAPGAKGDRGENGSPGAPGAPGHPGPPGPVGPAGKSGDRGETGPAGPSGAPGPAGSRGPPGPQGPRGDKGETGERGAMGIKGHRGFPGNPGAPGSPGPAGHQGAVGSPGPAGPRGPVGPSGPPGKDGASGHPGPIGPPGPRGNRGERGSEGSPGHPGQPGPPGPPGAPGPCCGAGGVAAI
The conditions noted are these: both partners purified.

As to “DDR1-Fc (recombinant human discoidin domain receptor 1 ectodomain, Fc-tagged) (from UniProt Q08345 21-417) (Fc fusion)”, the Kd came out at 53.3 nM in assay [1] and 66 nM in assay [2].

B1: DDR2-Fc (recombinant human discoidin domain receptor 2 ectodomain, Fc-tagged) (Fc fusion, UniProt Q16832 22-399, looked up)
chain: KAQVNPAICRYPLGMSGGQIPDEDITASSQWSESTAAKYGRLDSEEGDGAWCPEIPVEPDDLKEFLQIDLHTLHFITLVGTQGRHAGGHGIEFAPMYKINYSRDGTRWISWRNRHGKQVLDGNSNPYDIFLKDLEPPIVARFVRFIPVTDHSMNVCMRVELYGCVWLDGLVSYNAPAGQQFVLPGGSIIYLNDSVYDGAVGYSMTEGLGQLTDGVSGLDDFTQTHEYHVWPGYDYVGWRNESATNGYIEIMFEFDRIRNFTTMKVHCNNMFAKGVKIFKEVQCYFRSEASEWEPNAISFPLVLDDVNPSARFVTVPLHHRMASAIKCQYHFADTWMMFSEITFQSDAAMYNNSEALPTSPMAPTTYDPMLKVDDSNTR
notes: human discoidin domain receptor 2, ectodomain; In the functional rows the receptor was full-length DDR2 in HEK293 cells; also called DDR2 ectodomain; source: HEK293-EBNA, episomally transfected, purified (rProtein A)
Regarding B1, the figures for the Kd in assay [1], in assay [2] and in assay [3] were 81.2 nM, 69.7 nM and 20 ± 1.9 nM, respectively.

B2: DDR1-Fc (recombinant human discoidin domain receptor 1 ectodomain, Fc-tagged) (Fc fusion, UniProt Q08345 21-417, looked up)
chain: DMKGHFDPAKCRYALGMQDRTIPDSDISASSSWSDSTAARHSRLESSDGDGAWCPAGSVFPKEEEYLQVDLQRLHLVALVGTQGRHAGGLGKEFSRSYRLRYSRDGRRWMGWKDRWGQEVISGNEDPEGVVLKDLGPPMVARLVRFYPRADRVMSVCLRVELYGCLWRDGLLSYTAPVGQTMYLSEAVYLNDSTYDGHTVGGLQYGGLGQLADGVVGLDDFRKSQELRVWPGYDYVGWSNHSFSSGYVEMEFEFDRLRAFQAMQVHCNNMHTLGARLPGGVECRFRRGPAMAWEGEPMRHNLGGNLGDPRARAVSVPLGGRVARFLQCRFLFAGPWLLFSEISFISDVVNNSSPALGGTFPPAPWWPPGPPPTNFSSLELEPRGQQPVAKAEGSPTA
notes: human discoidin domain receptor 1, ectodomain; IgG1 Fc, R&D Systems) stood in which experiment; In the functional rows the receptor was full-length DDR1a in HEK293 cells or endogenous DDR1 on human megakaryocytes; also called DDR1 ectodomain; source: HEK293-EBNA, episomally transfected, purified (rProtein A) (IgG2 Fc); for some experiments bought: R&D Systems (IgG1 Fc)
As to B2, the Kd in assay [3] was 15.2 ± 0.9 nM.

The values above are taken from paper PMC4813464, “Recombinant Collagen Engineered to Bind to Discoidin Domain Receptor Functions as a Receptor Inhibitor*” (The Journal of Biological Chemistry, 2015).
